In publication PMC2702820, “Pyrin Modulates the Intracellular Distribution of PSTPIP1” (PLoS ONE, 2009):

Legend:
[1] = target: PSTPIP1, endogenous, PAPA syndrome patient (human (endogenous in CD14+ cells)) (UniProt O43586); assay: non-reducing SDS-PAGE with Western blot; lysates of CD14+ cells from controls and a PAPA patient, non-reducing conditions, probed with anti-PSTPIP1
[2] = target: the molecule itself; assay: as above
[3] = target: the molecule itself; assay: non-reducing SDS-PAGE; recombinant PSTPIP1 from E. coli run in the absence of added reducing agent, Coomassie stain

For “PSTPIP1, endogenous, PAPA syndrome patient (from UniProt O43586 1-416) (natural protein)”, the stoichiometry N [1] was 2.

B1: PSTPIP1 (proline serine threonine phosphatase-interacting protein 1), endogenous, control individuals (natural protein, human (endogenous in CD14+ cells), UniProt O43586 1-416, looked up)
chain: MMPQLQFKDAFWCRDFTAHTGYEVLLQRLLDGRKMCKDMEELLRQRAQAEERYGKELVQIARKAGGQTEINSLRASFDSLKQQMENVGSSHIQLALTLREELRSLEEFRERQKEQRKKYEAVMDRVQKSKLSLYKKAMESKKTYEQKCRDADDAEQAFERISANGHQKQVEKSQNKARQCKDSATEAERVYRQSIAQLEKVRAEWEQEHRTTCEAFQLQEFDRLTILRNALWVHSNQLSMQCVKDDELYEEVRLTLEGCSIDADIDSFIQAKSTGTEPPAPVPYQNYYDREVTPLTSSPGIQPSCGMIKRFSGLLHGSPKTTSLAASAASTETLTPTPERNEGVYTAIAVQEIQGNPASPAQEYRALYDYTAQNPDELDLSAGDILEVILEGEDGWWTVERNGQRGFVPGSYLEKL
notes: PSTPIP1, human, endogenous in CD14+ cells of control individuals (C1, C2); Major species runs at 95-96 kDa (dimer) on a non-reducing gel; minor monomer at 48 kDa and faint multimers; also called CD2BP1; source: endogenous, lysates of human CD14+ cells enriched from PBMC of control individuals
In the case of B1, the “stoichiometry N” value [2] is reported as 2.

B2: Recombinant human PSTPIP1 protein expressed in E. coli (natural protein, UniProt O43586 1-416, looked up)
chain: B1 chain
notes: PSTPIP1, human, recombinant; monomer runs at 48 kDa; the purification is not described, only that several steps of the recovery need DTT; also called recombinant PSTPIP1; source: E. coli (pHIS8 plasmid), recovered recombinant protein
B2 was tested, and the “stoichiometry N” value [3] was 2.
